First the molecules themselves.
T1: 6×His-FtsZ (E. coli, UniProt P0A9A6 1-383)
T1 construct: FtsZ of E. coli, full length (FtsZ-FL), with an N-terminal 6×His tag, from pSD119; By the primer His-FtsZ-SstI the chain begins M-HHHHHH and goes on with F2 of FtsZ (FEPMELT...); also called 6×His-tagged FtsZ-FL; source: E. coli JS238 with pSD119, arabinose induced, purified (Ni-NTA); not shown: His6, N-terminal, kept
T1 sequence (looked up): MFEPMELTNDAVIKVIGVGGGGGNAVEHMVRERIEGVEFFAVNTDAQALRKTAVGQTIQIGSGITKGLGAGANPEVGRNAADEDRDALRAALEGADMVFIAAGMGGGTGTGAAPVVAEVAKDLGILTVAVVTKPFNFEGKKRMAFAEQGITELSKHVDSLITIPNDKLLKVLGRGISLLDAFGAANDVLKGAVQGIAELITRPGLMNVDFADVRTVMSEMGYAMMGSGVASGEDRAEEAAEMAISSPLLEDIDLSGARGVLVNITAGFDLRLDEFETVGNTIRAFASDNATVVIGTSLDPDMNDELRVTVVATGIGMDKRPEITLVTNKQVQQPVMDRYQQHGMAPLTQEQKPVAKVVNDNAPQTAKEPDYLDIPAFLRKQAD

T2: 6×His-FtsZ-K190V (E. coli, UniProt P0A9A6 1-383, K190V)
T2 construct: FtsZ, E. coli, His-tagged, with K190V; the construct is not described in the methods; Probably a derivative of pSD119 (N-terminal His6, full length)
T2 sequence (looked up): T1 sequence (looked up) with K190V

B1: ZipA_(185–328) (domain or fragment)
chain: not shown
notes: amplified from chromosomal DNA; also called C-terminal domain of ZipA; source: expressed from pSD198 (pQE80 derivative)
B2: 6×His-SlmA (natural protein, E. coli, UniProt P0C093 1-198, looked up)
chain: MAEKQTAKRNRREEILQSLALMLESSDGSQRITTAKLAASVGVSEAALYRHFPSKTRMFDSLIEFIEDSLITRINLILKDEKDTTARLRLIVLLLLGFGERNPGLTRILTGHALMFEQDRLQGRINQLFERIEAQLRQVLREKRMREGEGYTTDETLLASQILAFCEGMLSRFVRSEFKYRPTDDFDARWPLIAAQLQ
notes: SlmA, E. coli; also called SlmA-WT; His tagged SlmA; source: E. coli JS238/pQE80-slmA, purified (Ni-NTA)
B3: SlmA (untagged version) (natural protein, E. coli, UniProt P0C093 1-198, looked up)
chain: B2 chain
notes: SlmA of E. coli; The forward primer slmA-SUMO-F begins at the second codon (GCA, Ala2), so the cleaved protein probably lacks the first methionine; also called SlmA-WT; nucleoid occlusion factor SlmA; source: E. coli BL21 (λDE3)/pLysS with pSUMO-SlmA, purified (Ni-NTA; H-SUMO tag cleaved with Ulp1, tag and protease removed on Ni-NTA); not shown: His-SUMO (H-SUMO), N-terminal, cleaved
B4: untagged SlmA (natural protein, E. coli, UniProt P0C093 1-198, looked up)
chain: B2 chain
notes: SlmA, E. coli; Used with or without SBS DNA on 6×His-FtsZ tips; also called SlmA (untagged version); source: E. coli BL21 (λDE3)/pLysS with pSUMO-SlmA, purified (Ni-NTA; tag cleaved with Ulp1, flow-through collected)
B5: 6×His-FtsZ360 (domain or fragment, E. coli, UniProt P0A9A6 1-360, looked up)
chain: MFEPMELTNDAVIKVIGVGGGGGNAVEHMVRERIEGVEFFAVNTDAQALRKTAVGQTIQIGSGITKGLGAGANPEVGRNAADEDRDALRAALEGADMVFIAAGMGGGTGTGAAPVVAEVAKDLGILTVAVVTKPFNFEGKKRMAFAEQGITELSKHVDSLITIPNDKLLKVLGRGISLLDAFGAANDVLKGAVQGIAELITRPGLMNVDFADVRTVMSEMGYAMMGSGVASGEDRAEEAAEMAISSPLLEDIDLSGARGVLVNITAGFDLRLDEFETVGNTIRAFASDNATVVIGTSLDPDMNDELRVTVVATGIGMDKRPEITLVTNKQVQQPVMDRYQQHGMAPLTQEQKPVAKVVND
notes: FtsZ, E. coli, truncated by two stop codons after codon 360; lacks the conserved C-terminal tail; source: E. coli JS238 with pSD119-Z360, purified (Ni-NTA); not shown: His6, N-terminal, kept
B6: FtsZ (natural protein, E. coli, UniProt P0A9A6 1-383, looked up)
chain: T1 sequence (looked up)
notes: FtsZ, E. coli, untagged, from pSEB160; also called FtsZ-WT; WT FtsZ
B7: 6×His-FtsZ (natural protein, E. coli, UniProt P0A9A6 1-383, looked up)
chain: T1 sequence (looked up)
notes: FtsZ, E. coli; 6×His-tagged ftsZ amplified from pSEB160 (pSD119); By the printed primer the six His codons follow the start codon and precede Phe2; also called 6×His-tagged FtsZ-FL; source: E. coli JS238 with pSD119, purified (Ni-NTA); not shown: His6, N-terminal, kept
B8: FtsZ-K190V (natural protein, E. coli, UniProt P0A9A6 1-383, looked up)
chain: T1 sequence (looked up) with K190V
notes: FtsZ, E. coli, untagged, with K190V; pSEB160 derivative
B9: FtsZ-D86N (natural protein, E. coli, UniProt P0A9A6 1-383, looked up)
chain: T1 sequence (looked up) with D86N
notes: FtsZ, E. coli, untagged, with D86N; pSEB160 derivative

Substitutions are numbered along the chain they refer to. Names and notes keep the numbering of the source.

The data set “FtsZ” concerns the target B6. Briefly: BLI; competition: SlmA/SBS17-30mer on streptavidin tips; 4 µM FtsZ preincubated with various concentrations of ZipA185-328 (with GDP). To be noted: both partners purified. For orientation: In BLI a coated tip is dipped into the sample, and binding shifts an interference pattern.
The data set “FtsZ-D86N” addresses B9. In words: BLI; biotinylated SBS17-30mer (50 nM) on streptavidin tips, loaded with 4 µM SlmA or SlmA mutant; FtsZ or variants (4 µM, preincubated with 1 mM GDP) or peptides (up to 320 µM) in solution; 1× Pol buffer, room temperature. The settings on record: both partners purified.
The data set “FtsZ-K190V” deals with B8. In words: co-sedimentation; stable FtsZ polymers formed with GMPCPP (1 mM); proteins 5 µM, SBS17-30mer DNA 2 µM; Pol buffer (50 mM HEPES-NaOH pH 8.0, 200 mM KCl, 10 mM MgCl2); 80,000 rpm 15 min 25°C; supernatant and pellet by SDS-PAGE. To be noted: both partners purified.
In data set [1] the target is T1, 6×His-FtsZ. In words: BLI; 6×His-FtsZ (loaded at 1 µM) immobilised on Ni-NTA biosensor; untagged SlmA without SBS DNA in solution; 1× Pol buffer (50 mM HEPES-NaOH pH 8.0, 200 mM KCl, 10 mM MgCl2), room temperature; global fit (GraphPad Prism 5). The settings on record: both partners purified.
Data set [2] addresses T1, 6×His-FtsZ. Briefly: BLI; 6×His-FtsZ (loaded at 1 µM) immobilised on Ni-NTA biosensor; untagged SlmA preincubated with SBS-14mer DNA in solution; 1× Pol buffer (50 mM HEPES-NaOH pH 8.0, 200 mM KCl, 10 mM MgCl2), room temperature; global fit (GraphPad Prism 5). The settings on record: both partners purified.
Data set [3] deals with T1, 6×His-FtsZ. In words: BLI; 6×His-FtsZ (loaded at 1 µM) immobilised on Ni-NTA biosensor; untagged SlmA preincubated with SBS-18mer DNA in solution; 1× Pol buffer (50 mM HEPES-NaOH pH 8.0, 200 mM KCl, 10 mM MgCl2), room temperature; global fit (GraphPad Prism 5). To be noted: both partners purified.
The target of data set [4] is T1, 6×His-FtsZ. Briefly: BLI; 6×His-FtsZ (loaded at 1 µM) immobilised on Ni-NTA biosensor; untagged SlmA preincubated with SBS17-20mer DNA in solution; 1× Pol buffer (50 mM HEPES-NaOH pH 8.0, 200 mM KCl, 10 mM MgCl2), room temperature; global fit (GraphPad Prism 5). The settings on record: both partners purified.
In data set [5] the target is T1, 6×His-FtsZ. In words: BLI; 6×His-FtsZ (loaded at 1 µM) immobilised on Ni-NTA biosensor; untagged SlmA preincubated with SBS17-30mer DNA in solution; 1× Pol buffer (50 mM HEPES-NaOH pH 8.0, 200 mM KCl, 10 mM MgCl2), room temperature; global fit (GraphPad Prism 5). The settings on record: both partners purified.
Data set [6] addresses B7. Briefly: BLI; 6×His-FtsZ or variant (1 µM) immobilised on Ni-NTA tips; untagged SlmA preincubated with SBS17-30mer DNA in solution; 1× Pol buffer, room temperature; global fitting. The settings on record: both partners purified.
In another data set the target is T2, 6×His-FtsZ-K190V. The data set is described as above. To be noted: both partners purified.
Data set [7] deals with the molecule itself. Briefly: negative-stain electron microscopy of polymers; FtsZ or variant 2 µM with 1 mM GTP in Pol buffer (50 mM HEPES-NaOH pH 8.0, 200 mM KCl, 10 mM MgCl2), room temperature 5 min, 1% uranyl acetate; self-assembly into filaments.

Take B1: the “percent decrease of the FtsZ binding signal on SlmA/SBS17-30mer at a 1:1 ratio of FtsZ to ZipA185-328” value in the data set with FtsZ is ~30%.
For the molecule B2, the binding result in the data set with FtsZ-D86N and with FtsZ-K190V was “binds” each time.
As a reminder, the Kd is the free concentration of one partner at which half of the binding sites on the other are occupied at equilibrium, for simple one-to-one binding. As usually defined, the koff is the rate constant with which the complex falls apart. One may read the kon as the rate constant with which the complex forms. The low end stands for slow association, the high end for fast association. Regarding B3, the equilibrium dissociation constant (Kd) with 6×His-FtsZ [1] came to 21000 nM; in the data set with 6×His-FtsZ [2], 206 nM; with 6×His-FtsZ [3], 309 nM; with 6×His-FtsZ [4], 789 nM. Further, the koff with 6×His-FtsZ [1] was found to be 0.149 s⁻¹; with 6×His-FtsZ [2], 0.0057 s⁻¹; with 6×His-FtsZ [3], 0.0067 s⁻¹; in the data set with 6×His-FtsZ [4] it was 0.0143 s⁻¹; with 6×His-FtsZ [5], 0.0155 s⁻¹. For the same molecule, the kon with 6×His-FtsZ [1] was found to be 7100 M⁻¹ s⁻¹; with 6×His-FtsZ [2], 27500 M⁻¹ s⁻¹; with 6×His-FtsZ [3], 21600 M⁻¹ s⁻¹; with 6×His-FtsZ [4], 18100 M⁻¹ s⁻¹; in the data set with 6×His-FtsZ [5], 74000 M⁻¹ s⁻¹.
In the case of B4, in the data set with 6×His-FtsZ [6], the Kd stood at 210 nM. The binding result with 6×His-FtsZ-K190V is listed as “binds”.
Consider B5, for which, in [7], the binding result is recorded as “binds”.
Take B6: in data set [7], the binding result was “binds”.
Turning to B7, the binding result in data set [7] is recorded as “binds”.
B8: the binding result in [7] was “binds”.
With B9, in [7], the binding result is listed as “binds”.

The record behind these values is publication PMC4117426, “SlmA Antagonism of FtsZ Assembly Employs a Two-pronged Mechanism like MinCD” (PLoS Genetics, 2014).
